Changes are numbered by the printed parent chain.
B1: 2A11 항체 (antibody, V domains shown)
VH: QVQLQQPGAELVRPGASVTLSCKASGYTFTDYEMHWVKQTPVHGLEWIGIIDPETGGTAYNQKFKGKATLTADKSSSTAYMELRSLTSEDSAVYYCTRGKFYYSGRDYAMDYWGQGTSVTVSS
VL: DVLMTQTPLSLPVSLGDQASISCRSSQSIVHSNGNTYLEWYLQKPGQSPKLLIYKVSNRFSGVPDRFSGSGSGTDFTLKISRVEAEDLGVYFCFQGSQVPPTFGGGTKLEIK
notes: Mouse monoclonal antibody from a hybridoma; also called 항-BAG2 항체 2A11
B2: 4C2 항체 (antibody, V domains shown)
VH: B1 VH with G57A
VL: B1 VL with I53F
notes: Mouse monoclonal antibody from a hybridoma; also called 항-BAG2 항체 4C2
B3: 8C4 항체 (antibody, V domains shown)
VH: B1 VH with G56A
VL: B1 VL with I53F
notes: Mouse monoclonal antibody from a hybridoma; also called 항-BAG2 항체 8C4
B4: 3F12 항체 (antibody, V domains shown)
VH: QVQLQESGPDLVKPSQSLSLTCTVTGYSITSGYSWHWIRQFPGNKLEWMGYIYYRGSTNYNPSLKSRISITRDTSKNQFFLLLKSVTTEDTATYYCAREAYWGQGTLVTVSA
VL: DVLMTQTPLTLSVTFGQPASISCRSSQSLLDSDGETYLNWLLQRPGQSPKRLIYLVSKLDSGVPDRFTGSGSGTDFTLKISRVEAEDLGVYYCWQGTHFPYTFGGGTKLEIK
notes: Mouse monoclonal antibody from a hybridoma; Biotinylated when used as detecting antibody in the sandwich ELISA; also called 항-BAG2 항체 3F12
B5: 3G8 항체 (antibody, V domains shown)
VH: QIQLVQSGPELKKPGETVKISCKASGYSFTKYGMNWVKQAPGKDIKWMGWINTNTGEATYGEEVKGRFAFSLETSASTAYLQINNLKNEDTATYFCARLGLRYLDYWGQGTTLTVSS
VL: DIVMTQSPASLVVSLGQRATISCRASKSVSTSDYSYMHWYQQKPGQPPKVLIYLASNLESGVPARFSGSGSGTDFTLNIHPVEEEDAATYYCQHNRELPPTFGAGTKLELK
notes: Mouse monoclonal antibody from a hybridoma; Biotinylated when used as detecting antibody in the sandwich ELISA; also called 항-BAG2 항체 3G8

Key:
인간 BAG2 단백질 [1] = target: T1, 인간 BAG2 단백질 (human, UniProt O95816 2-211, limits assumed); assay: immunoblot screening of hybridomas
T1 construct: also called BAG2 폴리펩티드; human BAG2
T1 sequence (O95816 2-211 limits assumed): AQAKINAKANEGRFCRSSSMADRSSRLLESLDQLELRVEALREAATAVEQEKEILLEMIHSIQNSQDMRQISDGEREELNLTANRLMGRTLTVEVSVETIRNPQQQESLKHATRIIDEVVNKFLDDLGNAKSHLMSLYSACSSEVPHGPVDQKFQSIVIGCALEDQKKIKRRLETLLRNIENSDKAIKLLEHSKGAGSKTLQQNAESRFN

[2] = target: T2, GST-Bag Full (GST와 융합된 전장 BAG2 폴리펩티드) (human, UniProt O95816 1-211); assay: immunoblot on lysate of HEK293T cells with the GST-Bag Full vector, signal at about 50 kDa
T2 construct: Expressed in HEK293T cells, detected in lysate at about 50 kDa by immunoblot; not shown: GST tag, about 26 kDa, of the pcDNA3.1+/GST vector (NovoPro Bioscience)
T2 sequence (O95816 whole entry): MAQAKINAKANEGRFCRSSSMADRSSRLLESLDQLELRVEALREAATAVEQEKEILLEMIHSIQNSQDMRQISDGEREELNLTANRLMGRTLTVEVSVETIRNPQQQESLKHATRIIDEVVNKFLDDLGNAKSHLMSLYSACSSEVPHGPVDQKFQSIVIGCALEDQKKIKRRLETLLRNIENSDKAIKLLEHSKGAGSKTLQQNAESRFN

인간 BAG2 단백질 [3] = target: T1, 인간 BAG2 단백질; assay: immunoblot on MDA-MB-231 cell lysate

| Binder | binding result (인간 BAG2 단백질 [1]) | binding result [2] | binding result (인간 BAG2 단백질 [3]) |
| --- | --- | --- | --- |
| B1 | binds | binds |  |
| B2 |  | binds | binds |
| B3 |  | binds | binds |
| B4 | binds | binds |  |
| B5 |  | binds | binds |
